Test results published in patent US20230213519A1 (4TEEN4 PHARMACEUTICALS, published 2023).
No end group written: not given here. *: point of attachment. Biotin = O=C1N[C@H]2[C@H](CS[C@H]2CCCCC(=O)*)N1

Experiments:
[1] = biological target: T1, epitope mapping peptide #5 (human); test: labelled AK1967 on biotinylated peptide #5 captured on avidin plate, chemiluminescence
T1 peptide: Biotin-AFNFDQETVINPETGE
Experimental: (§1) The plates were filled with 200 μl of labelled and diluted detection antibody (tracer) and incubated for 4 h at room temperature. Unbound tracer was removed by washing 4 times with 350 μl washing solution (20 mM PBS, pH 7.4, 0.1% Triton X-100). Well-bound chemiluminescence was measured by using the Centro LB 960 luminometer (Berthold Technologies GmbH & Co. KG).

[2] = biological target: T2, epitope mapping peptide #3 (human); test: labelled AK1967 on biotinylated peptide #3 captured on avidin plate, chemiluminescence
T2 peptide: Biotin-AFNFDQETVINPETGEQI
Experimental: as §1

[3] = biological target: T3, epitope mapping peptide #14 (human, not fully specified (C-terminus)); test: labelled AK1967 on biotinylated peptide #14 captured on avidin plate, chemiluminescence
T3 peptide: INPETGEQIQSWYK(Biotin)
Experimental: as §1

[4] = biological target: T4, epitope mapping peptide #12 (human, not fully specified (C-terminus)); test: labelled AK1967 on biotinylated peptide captured on avidin plate, chemiluminescence
T4 peptide: PETGEQIQSWYK(Biotin)
Experimental: as §1

[5] = biological target: T5, epitope mapping peptide #10 (human); test: as above
T5 construct: also called bio-AFNFDQETVIN
T5 peptide: Biotin-AFNFDQETVIN
Experimental: as §1

[6] = biological target: T6, epitope mapping peptide #8 (human); test: as above
T6 peptide: Biotin-AFNFDQETVINPE
Experimental: as §1

[7] = biological target: T7, epitope mapping peptide #7 (human); test: as above
T7 peptide: Biotin-AFNFDQETVINPET
Experimental: as §1

[8] = biological target: T8, epitope mapping peptide #9 (human); test: as above
T8 peptide: Biotin-AFNFDQETVINP
Experimental: as §1

[9] = biological target: T9, epitope mapping peptide #13 (human, not fully specified (C-terminus)); test: as above
T9 peptide: NPETGEQIQSWYK(Biotin)
Experimental: as §1

[10] = biological target: T10, epitope mapping peptide #11 (human, not fully specified (C-terminus)); test: as above
T10 peptide: ETGEQIQSWYK(Biotin)
Experimental: as §1

[11] = biological target: T11, epitope mapping peptide #15 (human, not fully specified (C-terminus)); test: labelled AK1967 on biotinylated peptide #15 captured on avidin plate, chemiluminescence
T11 peptide: VINPETGEQIQSWYK(Biotin)
Experimental: as §1

[12] = biological target: T12, epitope mapping peptide #6 (human); test: labelled AK1967 on biotinylated peptide #6 captured on avidin plate, chemiluminescence
T12 peptide: Biotin-AFNFDQETVINPETG
Experimental: as §1

[13] = biological target: T13, epitope mapping peptide #4 (human); test: labelled AK1967 on biotinylated peptide #4 captured on avidin plate, chemiluminescence
T13 peptide: Biotin-AFNFDQETVINPETGEQ
Experimental: as §1

[14] = biological target: T14, epitope mapping peptide #1 (human, biotinylated at the N- or C-terminus (which end is in the drawing only)); test: labelled AK1967 on biotinylated peptide #1 captured on avidin plate, chemiluminescence
T14 peptide: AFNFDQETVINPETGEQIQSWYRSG
Experimental: as §1

[15] = biological target: T15, epitope mapping peptide #17 (human, not fully specified (C-terminus)); test: labelled AK1967 on biotinylated peptide #17 captured on avidin plate, chemiluminescence
T15 peptide: ETVINPETGEQIQSWYK(Biotin)
Experimental: as §1

[16] = biological target: T16, epitope mapping peptide #2 (human); test: labelled AK1967 on biotinylated peptide #2 captured on avidin plate, chemiluminescence
T16 peptide: Biotin-AFNFDQETVINPETGEQIQ
Experimental: as §1

[17] = biological target: T17, epitope mapping peptide #16 (human, not fully specified (C-terminus)); test: labelled AK1967 on biotinylated peptide #16 captured on avidin plate, chemiluminescence
T17 peptide: TVINPETGEQIQSWYK(Biotin)
Experimental: as §1

binding result [1]: binds | binding result [2]: binds | binding result [3]: binds | binding result [4]: no binding | binding result [5]: no binding | binding result [6]: no binding | binding result [7]: no binding | binding result [8]: no binding | binding result [9]: no binding | binding result [10]: no binding | binding result [11]: binds | binding result [12]: binds | binding result [13]: binds | binding result [14]: binds | binding result [15]: binds | binding result [16]: binds | binding result [17]: binds
B1: monoclonal anti-DPP3 antibody AK1967 (clone 1967 of SEQ ID No.: 2) (antibody, V domains shown)
VH: QVTLKESGPGILQPSQTLSLTCSFSGFSLSTSGMSVGWIRQPSGKGLEWLAHIWWNDNKSYNPALKSRLTISRDTSNNQVFLKIASVVTADTGTYFCARNYSYDYWGQGTTLTVSS
VL: DVVVTQTPLSLSVSLGDPASISCRSSRSLVHSIGSTYLHWYLQKPGQSPKLLIYKVSNRFSGVPDRFSGSGSGTDFTLKISRVEAEDLGVYFCSQSTHVPWTFGGGTKLEIK
notes: Murine monoclonal; A human IgG1 kappa backbone was used for chimerization and humanization; The Octet run captured 'AK1967' on anti-human Fc biosensors, so the format in that run is uncertain; also called Procizumab; PCZ
